From US10233219 (TUFTS MEDICAL CENTER, dated 2019)
Each block holds one binder with its values, some of them ahead of it. Non-standard residues stand in square brackets, D forms with d. No end group written: not given here. *: point of attachment. PEG8 = NCCOCCOCCOCCOCCOCCOCCOCCOCCC(=O)O; Palmitoyl = CCCCCCCCCCCCCCCC(=O)*; Tic = O=C(O)[C@@H]1Cc2ccccc2CN1

Tests used:
Assay in all cases: cell-based or functional assay
[1] = target: T1, mouse CMKLR1 (chemerin receptor) (mouse, UniProt P97468 1-371)
T1 sequence (looked up): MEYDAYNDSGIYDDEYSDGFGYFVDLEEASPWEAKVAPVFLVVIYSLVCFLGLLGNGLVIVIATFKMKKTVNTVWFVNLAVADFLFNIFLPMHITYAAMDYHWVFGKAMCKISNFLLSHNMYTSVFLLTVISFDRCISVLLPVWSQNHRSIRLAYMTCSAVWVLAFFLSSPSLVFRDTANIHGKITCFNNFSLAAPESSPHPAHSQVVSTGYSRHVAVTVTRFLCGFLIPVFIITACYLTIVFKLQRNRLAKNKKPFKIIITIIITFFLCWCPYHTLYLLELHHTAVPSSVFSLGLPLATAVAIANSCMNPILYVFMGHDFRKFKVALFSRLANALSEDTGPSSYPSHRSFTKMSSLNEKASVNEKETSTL

[2] = target: T2, human CMKLR1 (chemerin receptor) (human, UniProt Q99788 1-373)
T2 sequence (looked up): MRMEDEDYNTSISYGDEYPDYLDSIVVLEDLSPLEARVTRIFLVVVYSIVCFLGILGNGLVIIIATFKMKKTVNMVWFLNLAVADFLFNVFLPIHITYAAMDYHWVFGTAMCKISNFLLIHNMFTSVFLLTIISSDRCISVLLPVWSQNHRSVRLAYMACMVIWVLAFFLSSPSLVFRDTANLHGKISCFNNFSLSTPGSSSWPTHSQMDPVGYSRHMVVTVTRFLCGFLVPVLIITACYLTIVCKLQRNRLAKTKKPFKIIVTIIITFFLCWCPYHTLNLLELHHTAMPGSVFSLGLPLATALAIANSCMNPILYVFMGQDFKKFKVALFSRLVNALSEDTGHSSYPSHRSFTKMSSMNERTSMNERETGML

neurokinin 1 receptor = neurokinin 1 receptor (human, UniProt P25103 1-407)
Sequence of neurokinin 1 receptor (P25103 whole entry): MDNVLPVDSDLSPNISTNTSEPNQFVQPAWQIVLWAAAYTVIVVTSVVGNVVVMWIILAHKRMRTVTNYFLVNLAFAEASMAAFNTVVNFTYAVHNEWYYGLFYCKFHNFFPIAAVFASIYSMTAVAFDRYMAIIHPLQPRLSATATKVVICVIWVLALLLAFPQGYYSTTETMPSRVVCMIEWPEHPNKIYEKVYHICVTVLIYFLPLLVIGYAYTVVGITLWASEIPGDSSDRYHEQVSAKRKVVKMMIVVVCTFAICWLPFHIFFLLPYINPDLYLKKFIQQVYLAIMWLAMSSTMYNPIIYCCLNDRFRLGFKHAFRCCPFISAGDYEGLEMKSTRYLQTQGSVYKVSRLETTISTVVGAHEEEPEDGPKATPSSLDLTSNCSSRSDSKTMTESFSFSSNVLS

EC50 [1]: 2 nM | EC50 (nM), + wash [1]: 10.4 nM | pEC50 [1]: 8.7 | pEC50, + wash [1]: 7.96 | EC50 [2]: 2.6 nM | EC50 (nM), + wash [2]: 27.1 nM | pEC50 [2]: 8.59 | pEC50, + wash [2]: 7.6
B1: l-Stable Chem (lipidated stable chemerin peptide) (peptide)
peptide: {Palmitoyl-PEG8}-GG[dY]FLPSQF[dA][Tic]S
modifications: also: D-Ser, which S not given here

EC50 [1]: 13.7 nM | pEC50 [1]: 8.01
B2: s-Chem 21-157 (soluble recombinant human chemerin corresponding to amino acids 21-157) (ligand)
chain: ELTEAQRRGLQVALEEFHKHPPVQWAFQETSVESAVDTPFPAGIFVRLEFKLQQTSCRKRDWKKPECKVRPNGRKRKCLACIKLGSEDKVLGRLVHCPIETQVLREAEEHQETQCLRVQRAGEDPHSFYFPGQFAFS

EC50 [1]: 11.9 nM | pEC50 [1]: 7.92 | EC50 [2]: 60.6 nM | pEC50 [2]: 7.21
B3: s-Stable Chem (soluble stable chemerin peptide) (peptide)
peptide: H-[dY]FLPSQF[dA][Tic]S
modifications: also: D-Ser, which S not given here

EC50 (neurokinin 1 receptor): 6.1 nM
B4: l-SubP-COOH (lipidated Substance P with a C-terminal free acid) (peptide)
peptide: {Palmitoyl-PEG8}-KGGRPKPQQFFGLM-OH
SMILES: CCCCCCCCCCCCCCCC(=O)NCCOCCOCCOCCOCCOCCOCCOCCOCCC(=O)N[C@@H](CCCCN)C(=O)NCC(=O)NCC(=O)N[C@@H](CCCNC(=N)N)C(=O)N1CCC[C@H]1C(=O)N[C@@H](CCCCN)C(=O)N1CCC[C@H]1C(=O)N[C@@H](CCC(N)=O)C(=O)N[C@@H](CCC(N)=O)C(=O)N[C@@H](Cc1ccccc1)C(=O)N[C@@H](Cc1ccccc1)C(=O)NCC(=O)N[C@@H](CC(C)C)C(=O)N[C@@H](CCSC)C(=O)O
